Measured values taken from patent publication US8586357B2, “Markers of definitive endoderm” (ViaCyte, Inc., priority 2003, dated 2013).

Experiments:
Type in all cases: cell-based, human
hESCs [1] = assay: Isolation of definitive endoderm cells by FACS using cell surface markers of Table 5 (Example 13); details: 100, 50 or 25 ng/ml activin A; Example 13 written in present tense
Method: Using methods, such as those described in the above Examples, hESCs are differentiated to produce definitive endoderm. In particular, to increase yield and purity of definitive endoderm in differentiating cell cultures, the serum concentration of the medium is controlled as follows: 0% FBS on day 1, 0.2% FBS on day 2 and 2.0% FBS on days 3-6. Differentiating cell populations are grown in the presence of 100 ng/ml, 50 ng/ml or 25 ng/ml activin A, whereas non-differentiating control populations are grown in the absence of activin A.
An appropriate amount of labeled antibody that binds to one of the markers listed above is added to a sample of each culture and labeling proceeds on ice. Cells are washed by adding PBS and pelleted. A second wash with buffer is completed then cells are resuspended. Secondary antibody (FITC conjugated secondary antibody is added and allowed to label for about 30 minutes followed by two washes in buffer as above. Cells are resuspended and analyzed and sorted using a FACS. Cells are collected directly into RLT lysis buffer for subsequent isolation of total RNA for gene expression analysis by real-time quantitative PCR.

hESCs [2] = assay: CXCR4+ cell number by flow cytometry (FACS); details: 0, 10 or 100 ng/mL; 7 days; 0.5%-2% FBS; FIGS. 30A-C
Method: hESCs were differentiated in RPMI media supplemented with 0.5%-2% FBS (increased from 0.5% to 1.0% to 2.0% over the first 3 days of differentiation) and either 0, 10, or 100 ng/mL of activin A. After 7 days of differentiation the cells were dissociated in PBS without Ca^2+/Mg^2+ containing 2% FBS and 2 mM (EDTA) for 5 minutes at room temperature. The cells were filtered through 35 um nylon filters, counted and pelleted. Pellets were resuspended in a small volume of 50% human serum/50% normal donkey serum and incubated for 2 minutes on ice to block non-specific antibody binding sites. To this, 1 uL of mouse anti-CXCR4 antibody (Abeam, cat# ab10403-100) was added per 50 uL (containing approximately 10^5 cells) and labeling proceeded for 45 minutes on ice. Cells were washed by adding 5 mL of PBS containing 2% human serum (buffer) and pelleted. A second wash with 5 mL of buffer was completed then cells were resuspended in 50 uL buffer per 10^5 cells. […] Cells were resuspended at 5×10^6 cells/mL in buffer and analyzed and sorted using a FACS Vantage (Beckton Dickenson) by the staff at the flow cytometry core facility (The Scripps Research Institute). Cells were collected directly into RLT lysis buffer (Qiagen) for subsequent isolation of total RNA for gene expression analysis by real-time quantitative PCR.

hESCs [3] = assay: AFP antibody-labeled cell number by flow cytometry; details: presence vs absence of activin A; FIGS. 9A-B
Excerpt: As a further evidence of the specificity of the SOX17^hi/AFP^lo/TM^lo/SPARC^lo marker profile as predictive of definitive endoderm, SOX17 and AFP gene expression was quantitatively compared to the relative number of antibody labeled cells.

B1: Activin A: growth factor of the TGFβ superfamily, Nodal/Activin subgroup; definitive endoderm inducer (protein, UniProt P08476 311-426, looked up)
Inhibin beta A chain: GLECDGKVNICCKKQFFVSFKDIGWNDWIIAPSGYHANYCEGECPSHIAGTSGSSLSFHSTVINHYRMRGHSPFANLKSCCVPTKLRPMSMLYYDDGQNIIKKDIQNMIVEECGCS
hESCs [1]
  number of cells positive for the Table 4 markers as dose is increased: increase significantly
hESCs [2]
  number of CXCR4+ cells as dose is increased: increase dramatically
hESCs [3]
  decrease in AFP antibody-labeled cell number: approximately 7 fold
